# Source: PMC7901269 (Cell, 2021)
# B1: chimera 253H/165L (Fab, V domains shown)
# VH: not shown
# VL: DIVMTQSPGTLSLSPGERATLSCRASQSVRSSYLAWYQQKPGQAPRLLIYGASRRGTGIPDRFSGSGSGTDFTLTISRLEPEDFAVYYCQQYGSSPWTFGQGTKVEIK
# notes: also called 253-165; 353/165; source: from Dejnirattisai et al., 2021; human mAbs expressed in HEK293T cells
# B2: mAb 88 (Fab, V domains shown)
# VH: QLQLQESGPGLVKPSQTLSLTCTVSGGSISSGSYNWTWIRQPAGKGLEWIGRIYNSGSTNYNPSLKSRVTISVDTSKNQLSLKVRSVTAADTAVYYCARHCSGGTCYPKYYYGMDVWGQGTTVTVSS
# VL: QSALTQPPSVSEAPRQRVTISCSGSSSNIGNNAVNWYQQFPGKAPKLLIYYDDLLPSGVSDRFSGSKSGTSASLAISGVQSEDEADYYCAAWDDSLNVVVFGGGTKLTVL
# B3: mAb 150 (Fab, V domains shown)
# VH: QVQLVESGGGLIQPGGSLRLSCAASGVTVSSNYMSWVRQAPGKGLEWVSIIYSGGTTYYADSVKGRFTISRDSSMNTLYLQMNSLRAEDTAVYYCARDLMVYGIDVWGQGTTVTVSS
# VL: EIVMTQSPSSLSASVGDRVTITCRASQGISSYLAWYQQKPGKAPKLLIYAASTLQSGVPSRFSGSGSGTDFTLTISSLQPEDFATYYCQQLDSYPPGYTFGQGTKVDIK
# notes: source: from Dejnirattisai et al., 2021; human mAbs expressed in HEK293T cells
# Target: His-tagged SARS-CoV-2 RBD (native RBD) (SARS-CoV-2, Wuhan (native RBD), UniProt P0DTC2)
# Assay: BLI
# Conditions: both partners purified
row,Binder,Kd
1,B1,0.73 nM
2,B2,0.64 nM
3,B3,0.19 nM
